Measurements published in patent US20230220589A1.
Substitutions are numbered along the chain they refer to. Each block holds one binder with its values, some of them ahead of it.

What was measured:
[1] = target: M17-modified E NTAA target peptides; assay: encoding assay; P2 W;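 also: fraction of recording tags encoded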
[2] = target: M17-modified N NTAA target peptides; assay: encoding assay; P2 W;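 also: fraction of recording tags encoded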
[3] = target: M17-modified Y NTAA target peptides (M17-Y-P2-peptide); assay: encoding assay; P2 W;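 also: fraction of recording tags encoded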
[4] = target: M17-modified Q NTAA target peptides; assay: encoding assay; P2 W;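 also: fraction of recording tags encoded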
[5] = target: M17-modified T NTAA target peptides; assay: encoding assay; P2 W;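 also: fraction of recording tags encoded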
[6] = target: M17-modified H NTAA target peptides; assay: encoding assay; P2 W;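 also: fraction of recording tags encoded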
[7] = target: M17-modified S NTAA target peptides; assay: encoding assay; P2 W;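 also: fraction of recording tags encoded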
[8] = target: M17-modified P NTAA target peptides; assay: encoding assay; P2 W;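 also: fraction of recording tags encoded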
[9] = target: M17-modified D NTAA target peptides; assay: encoding assay; P2 W;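 also: fraction of recording tags encoded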
[10] = target: M17-modified F NTAA target peptides; assay: encoding assay; P2 W;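 also: fraction of recording tags encoded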
[11] = target: M17-modified A NTAA target peptides; assay: encoding assay; P2 W;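 also: fraction of recording tags encoded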
[12] = target: M17-modified W NTAA target peptides; assay: encoding assay; P2 W;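 also: fraction of recording tags encoded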
[13] = target: M17-modified V NTAA target peptides; assay: encoding assay; P2 W;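 also: fraction of recording tags encoded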
[14] = target: M17-modified M NTAA target peptides; assay: encoding assay; P2 W;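 also: fraction of recording tags encoded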
[15] = target: M17-modified I NTAA target peptides; assay: encoding assay; P2 W;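 also: fraction of recording tags encoded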
[16] = target: M17-modified G NTAA target peptides; assay: encoding assay; P2 W;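 also: fraction of recording tags encoded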
[17] = target: M17-modified L NTAA target peptides; assay: encoding assay; P2 W;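 also: fraction of recording tags encoded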
[18] = target: M17-modified E NTAA target peptides; assay: encoding assay; P2 S;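 also: fraction of recording tags encoded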
[19] = target: M17-modified N NTAA target peptides; assay: encoding assay; P2 S;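 also: fraction of recording tags encoded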
[20] = target: M17-modified Y NTAA target peptides (M17-Y-P2-peptide); assay: encoding assay; P2 S;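 also: fraction of recording tags encoded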
[21] = target: M17-modified Q NTAA target peptides; assay: encoding assay; P2 S;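 also: fraction of recording tags encoded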
[22] = target: M17-modified T NTAA target peptides; assay: encoding assay; P2 S;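 also: fraction of recording tags encoded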
[23] = target: M17-modified H NTAA target peptides; assay: encoding assay; P2 S;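 also: fraction of recording tags encoded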
[24] = target: M17-modified S NTAA target peptides; assay: encoding assay; P2 S;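 also: fraction of recording tags encoded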
[25] = target: M17-modified P NTAA target peptides; assay: encoding assay; P2 S;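 also: fraction of recording tags encoded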
[26] = target: M17-modified D NTAA target peptides; assay: encoding assay; P2 S;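 also: fraction of recording tags encoded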
[27] = target: M17-modified F NTAA target peptides; assay: encoding assay; P2 S;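 also: fraction of recording tags encoded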
[28] = target: M17-modified A NTAA target peptides; assay: encoding assay; P2 S;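 also: fraction of recording tags encoded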
[29] = target: M17-modified V NTAA target peptides; assay: encoding assay; P2 S;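 also: fraction of recording tags encoded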
[30] = target: M17-modified M NTAA target peptides; assay: encoding assay; P2 S;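 also: fraction of recording tags encoded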
[31] = target: M17-modified I NTAA target peptides; assay: encoding assay; P2 S;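 also: fraction of recording tags encoded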
[32] = target: M17-modified G NTAA target peptides; assay: encoding assay; P2 S;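 also: fraction of recording tags encoded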
[33] = target: M17-modified L NTAA target peptides; assay: encoding assay; P2 S;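 also: fraction of recording tags encoded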
[34] = target: M17-modified G NTAA target peptides; assay: encoding assay; P2 Y;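 also: fraction of recording tags encoded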
[35] = target: M17-modified Y NTAA target peptides (M17-Y-P2-peptide); assay: encoding assay; P2 Q;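 also: fraction of recording tags encoded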
[36] = target: M17-modified T NTAA target peptides; assay: encoding assay; P2 Q;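 also: fraction of recording tags encoded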
[37] = target: M17-modified H NTAA target peptides; assay: encoding assay; P2 Q;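 also: fraction of recording tags encoded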
[38] = target: M17-modified S NTAA target peptides; assay: encoding assay; P2 Q;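 also: fraction of recording tags encoded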
[39] = target: M17-modified P NTAA target peptides; assay: encoding assay; P2 Q;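 also: fraction of recording tags encoded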
[40] = target: M17-modified D NTAA target peptides; assay: encoding assay; P2 Q;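 also: fraction of recording tags encoded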
[41] = target: M17-modified A NTAA target peptides; assay: encoding assay; P2 Q;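 also: fraction of recording tags encoded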
[42] = target: M17-modified W NTAA target peptides; assay: encoding assay; P2 Q;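 also: fraction of recording tags encoded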
[43] = target: M17-modified I NTAA target peptides; assay: encoding assay; P2 Q;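 also: fraction of recording tags encoded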
[44] = target: M17-modified L NTAA target peptides; assay: encoding assay; P2 Q;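 also: fraction of recording tags encoded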
[45] = target: M44-modified E NTAA target peptides; assay: encoding assay; P2 W;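 also: fraction of recording tags encoded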
[46] = target: M44-modified D NTAA target peptides; assay: encoding assay; P2 S;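 also: fraction of recording tags encoded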
[47] = target: M44-modified S NTAA target peptides; assay: encoding assay; P2 S
[48] = target: M44-modified N NTAA target peptides; assay: encoding assay; P2 S
[49] = target: M44-modified W NTAA target peptides; assay: encoding assay; P2 S;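 also: fraction of recording tags encoded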
[50] = target: M44-modified E NTAA target peptides; assay: encoding assay; P2 S;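 also: fraction of recording tags encoded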
[51] = target: M44-modified T NTAA target peptides; assay: encoding assay; P2 Q;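 also: fraction of recording tags encoded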
[52] = target: M44-modified G NTAA target peptides (M44-G-P2-peptide); assay: encoding assay; P2 Q;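 also: fraction of recording tags encoded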
[53] = target: M44-modified W NTAA target peptides; assay: encoding assay; P2 Q;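 also: fraction of recording tags encoded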
[54] = target: M44-modified Y NTAA target peptides (M44-Y-P2-peptide); assay: encoding assay; P2 Q;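 also: fraction of recording tags encoded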

B1: engineered M17-Y binder (SEQ ID NO: 61) (designed binder, not shown: small tags and cut ends; large carriers)
chain: TVPDRSEIAGKWYVVALASNTEFYLREKDWVKSAMARISFLGEDELKVSSAVPSPNGCYKVERTWKKTSDDGEVYNSRAAKLKVEVLDTDYKSYAVIYATRVKDGRTDHQMILYSRSPEVSPAATAIFRKLAGERNYTDEMVAMLPRQEECTVDEV
encoding yield [1]: 0.01
encoding yield [2]: 0.02
encoding yield [3]: 0.12
encoding yield [4]: 0.02
encoding yield [5]: 0.01
encoding yield [6]: 0.02
encoding yield [7]: 0.02
encoding yield [8]: 0.03
encoding yield [9]: 0.02
encoding yield [10]: 0.14
encoding yield [11]: 0.02
encoding yield [12]: 0.04
encoding yield [13]: 0.05
encoding yield [14]: 0.02
encoding yield [15]: 0.11
encoding yield [16]: 0.01
encoding yield [17]: 0.03
encoding yield [18]: 0.01
encoding yield [19]: 0.02
encoding yield [20]: 0.1
encoding yield [21]: 0.01
encoding yield [22]: 0.02
encoding yield [23]: 0.02
encoding yield [24]: 0.01
encoding yield [25]: 0.01
encoding yield [26]: 0.01
encoding yield [27]: 0.04
encoding yield [28]: 0.02
encoding yield [29]: 0.02
encoding yield [30]: 0.04
encoding yield [31]: 0.03
encoding yield [32]: 0.03
encoding yield [33]: 0.02
encoding yield [34]: 0.04
encoding yield [35]: 0.03
encoding yield [36]: 0.01
encoding yield [37]: 0.04
encoding yield [38]: 0.03
encoding yield [39]: 0.01
encoding yield [40]: 0.01
encoding yield [41]: 0.03
encoding yield [42]: 0.01
encoding yield [43]: 0.02
encoding yield [44]: 0.03

B4: engineered M44-A binder (SEQ ID NO: 42) (designed binder, not shown: small tags and cut ends; large carriers)
chain: QVSVQPNFQQDKFLGRWFVAGLASNSSWDREKVAALSGAKMVVAPATDGGLNVTRTMLRKNQCETYTGLLQPAGSLGSYSWRSPHPGSTGSESVVETDYDQYALVYGQGSKGPGEDLRAAALWSRTQTPRAELKEKFTAFSKAQGFTEDTIVFLPQTDKCMTEQ
encoding yield [45]: 0.02
encoding yield [46]: 0.02
encoding yield [47]: 0.01
encoding yield [48]: 0.01
encoding yield [49]: 0.01
encoding yield [50]: 0.01
encoding yield [51]: 0.02
encoding yield [52]: 0.01
encoding yield [53]: 0.02
encoding yield [54]: 0.02

Next, values leading:

encoding yield [1]: 0.01
encoding yield [2]: 0.04
encoding yield [3]: 0.19
encoding yield [4]: 0.03
encoding yield [5]: 0.03
encoding yield [6]: 0.04
encoding yield [7]: 0.06
encoding yield [8]: 0.03
encoding yield [9]: 0.04
encoding yield [10]: 0.18
encoding yield [11]: 0.04
encoding yield [12]: 0.1
encoding yield [13]: 0.07
encoding yield [14]: 0.04
encoding yield [15]: 0.14
encoding yield [16]: 0.02
encoding yield [17]: 0.03
encoding yield [18]: 0.01
encoding yield [19]: 0.02
encoding yield [20]: 0.22
encoding yield [21]: 0.02
encoding yield [22]: 0.04
encoding yield [23]: 0.03
encoding yield [24]: 0.01
encoding yield [25]: 0.02
encoding yield [26]: 0.02
encoding yield [27]: 0.07
encoding yield [28]: 0.02
encoding yield [29]: 0.03
encoding yield [30]: 0.04
encoding yield [31]: 0.05
encoding yield [32]: 0.04
encoding yield [33]: 0.04
encoding yield [34]: 0.06
encoding yield [35]: 0.15
encoding yield [36]: 0.02
encoding yield [37]: 0.03
encoding yield [38]: 0.03
encoding yield [39]: 0.02
encoding yield [40]: 0.02
encoding yield [41]: 0.04
encoding yield [42]: 0.02
encoding yield [43]: 0.03
encoding yield [44]: 0.04
B2: upgraded binder after additional maturation round (SEQ ID NO: 62) (designed binder, not shown: small tags and cut ends; large carriers)
chain: B1 chain with E27G, W30R, A36V, L41Q, G105R, E119D

encoding yield [45]: 0.01
encoding yield [46]: 0.02
encoding yield [47]: 0.01
encoding yield [48]: 0.01
encoding yield [49]: 0.01
encoding yield [50]: 0.01
encoding yield [51]: 0.02
encoding yield [52]: 0.01
encoding yield [53]: 0.02
encoding yield [54]: 0.03
B3: engineered M44-L binder (SEQ ID NO: 31) (designed binder, not shown: small tags and cut ends; large carriers)
chain: QDSTQNLIPAPPLISVPLQPGFWTERFQGRWFLVGFAGNAVQKERQSRLTMQSLILELQEDNSYNITAINVRGQGCRYIISTLVPSSRPGQFTLGNIHSYPQIQSLDVQVADTDYDQFAMVFLQGTSENKQYFEVALAGRTKGLSDELKERFVSFAKSLGLKDNNIVFSVPTDQCIDN
